Measured values taken from US20170360770A1.
Blank lines part the entries; values can stand above or below the molecule they belong to.

Columns and labels:
[1] = target: human leukocyte antigen-DR (HLA-DR), on human cancer cell lines (human); experiment: cell-based or functional assay
[2] = target: human leukocyte antigen-DR (HLA-DR), on human cancer cell lines (human); experiment: cell-based ELISA on HLA-DR positive human melanoma cell line (printed A-374)
[3] = target: human leukocyte antigen-DR (HLA-DR), on human cancer cell lines (human); experiment: chemiluminescent cell-binding assay on SK-MEL-5 human melanoma cells
[4] = target: human leukocyte antigen-DR (HLA-DR), on human cancer cell lines (human); experiment: chemiluminescent cell-binding assay on SK-MEL-2 human melanoma cells
[5] = target: human leukocyte antigen-DR (HLA-DR), on human cancer cell lines (human); experiment: chemiluminescent cell-binding assay (LUMIGLO), 2 µg/mL antibody on A-375 human melanoma cells, at both 4° C. and RT
[6] = target: human leukocyte antigen-DR (HLA-DR), on human cancer cell lines (human); experiment: FACS, AlexaFluor-647-labeled IMMU-114 on MN-60 ALL cells
[7] = target: human leukocyte antigen-DR (HLA-DR), on human cancer cell lines (human); experiment: chemiluminescent cell-binding assay on A-375 human melanoma cells
[8] = target: human leukocyte antigen-DR (HLA-DR), on human cancer cell lines (human); experiment: FACS, AlexaFluor-647-labeled IMMU-114 on CAG MM cells
[9] = target: human leukocyte antigen-DR (HLA-DR), on human cancer cell lines (human); experiment: FACS, AlexaFluor-647-labeled IMMU-114 on MOLM-14 AML cells
[10] = target: human leukocyte antigen-DR (HLA-DR), on human cancer cell lines (human); experiment: chemiluminescent cell-binding assay (LUMIGLO), 2 µg/mL antibody on A-375 cells; reference: humanized anti-CD22 control antibody
[11] = target: human leukocyte antigen-DR (HLA-DR), on human cancer cell lines (human); experiment: chemiluminescent cell-binding assay on SK-MEL-28 human melanoma cells
[12] = target: human leukocyte antigen-DR (HLA-DR), on human cancer cell lines (human); experiment: FACS, AlexaFluor-647-labeled IMMU-114 on JVM-3 CLL cells

Kd [2]: 0.77 nM
Molecule: IMMU-140 (hL243-CL2A-SN-38), anti-HLA-DR antibody drug conjugate
IC50 (nM), in vitro cytotoxicity, CAG (MM) cells, MTS 96 h (nM (SN-38 equivalents)) [1]: 7.05
IC50 (nM), in vitro cytotoxicity, JVM-3 (CLL) cells, MTS 96 h (nM (SN-38 equivalents)) [1]: 0.77
IC50 (nM), in vitro cytotoxicity, MN-60 (ALL) cells, MTS 96 h (nM (SN-38 equivalents)) [1]: 1.29
IC50 (nM), in vitro cytotoxicity, MOLM-14 (AML) cells, MTS 96 h (nM (SN-38 equivalents)) [1]: 1.21

fold above background [3]: 12 fold
fold above background [4]: 2 fold
Maximum % Inhibition at 40 nM, CAG (MM) cells [1]: 28%
Maximum % Inhibition at 40 nM, JVM-3 (CLL) cells [1]: 65%
Maximum % Inhibition at 40 nM, MN-60 (ALL) cells [1]: 37%
Maximum % Inhibition at 40 nM, MOLM-14 (AML) cells [1]: 11%
fold mean luminescence over background [5]: > 48 fold
Mean fluorescence intensity (MFI) [6]: 65800 MFI
fold above background [7]: 48 fold
Mean fluorescence intensity (MFI) [8]: 80700 MFI
Mean fluorescence intensity (MFI) [9]: 5750 MFI
fold mean luminescence over non-specific control [10]: > 25 fold
fold above background [11]: 25 fold
Mean fluorescence intensity (MFI) [12]: 78700 MFI
Kd [2]: 0.65 nM
B1: IMMU-114 (hL243), humanized anti-HLA-DR IgG4 monoclonal antibody (antibody, from a related filing, V domains shown)
VH: QVQLQQSGSELKKPGASVKVSCKASGFTFTNYGMNWVKQAPGQGLKWMGWINTYTREPTYADDFKGRFAFSLDTSVSTAYLQISSLKADDTAVYFCARDITAVVPTGFDYWGQGSLVTVSS
VL: DIQLTQSPSSLSASVGDRVTITCRASENIYSNLAWYRQKPGKAPKLLVFAASNLADGVPSRFSGSGSGTDYTFTISSLQPEDIATYYCQHFWTTPWAFGGGTKLQIKR
IC50 (nM), in vitro cytotoxicity, CAG (MM) cells, MTS 96 h [1]: > 40 nM
IC50 (nM), in vitro cytotoxicity, JVM-3 (CLL) cells, MTS 96 h [1]: 1.52 nM
IC50 (nM), in vitro cytotoxicity, MN-60 (ALL) cells, MTS 96 h [1]: > 40 nM
IC50 (nM), in vitro cytotoxicity, MOLM-14 (AML) cells, MTS 96 h [1]: > 40 nM
